Consider 2 molecules from patent US20230071889A1 (OSE IMMUNOTHERAPEUTICS, published 2023).

The target of experiment [1] is T1, CD132 receptor (Sinobiological 10555-H08B) (UniProt P31785 23-254).
T1 construct: Bought protein injected over the CD127/IL-7 complex in Biacore; also called common γ chain
T1 sequence (looked up): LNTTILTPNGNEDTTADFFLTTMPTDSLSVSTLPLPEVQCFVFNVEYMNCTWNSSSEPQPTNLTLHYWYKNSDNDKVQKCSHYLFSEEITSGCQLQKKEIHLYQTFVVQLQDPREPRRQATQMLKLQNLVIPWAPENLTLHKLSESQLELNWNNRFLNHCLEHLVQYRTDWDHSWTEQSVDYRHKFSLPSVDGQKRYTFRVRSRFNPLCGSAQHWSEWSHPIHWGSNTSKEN
Nature of the experiment: Biacore, CD132 injected over the CD127/IL-7 complex on the chip. Here is the method:
CD127 (Sinobiological, 10975-H03H-50) was immobilized onto a CM5 biochip at 20 μg/ml and the indicated protein were added at serial concentrations (0.34; 1.03; 3.11; 9.3; 28 nM).
(In general: SPR reads the build-up and loss of mass on a sensor chip optically.)

Experiment [2] concerns the target T2, recombinant human PD-1 (Example 2) (human, UniProt Q15116 25-167, limits assumed, biotinylated in the PD-L1 ELISA (site not stated)).
T2 construct: Biotinylated form in the ELISA on PD-L1; recombinant human PD-1 (100 nM) in the Biacore assay on PD-L2; also called biotinylated recombinant human PD-1; PD-1 recombinant protein
Nature of the experiment: competition ELISA: PD-L1 coated, antibody mixed with biotinylated PD-1 at 0.6 ug/mL, streptavidin peroxidase; blocked ligand PD-L1. (In general: ELISA stands for enzyme-linked immunosorbent assay.)

T2 sequence (Q15116 25-167 limits assumed): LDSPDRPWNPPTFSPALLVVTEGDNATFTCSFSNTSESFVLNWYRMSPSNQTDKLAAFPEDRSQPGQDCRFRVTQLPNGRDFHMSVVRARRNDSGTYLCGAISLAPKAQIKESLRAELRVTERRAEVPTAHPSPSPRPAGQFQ

B1: recombinant IL-7 cytokine (rIL7) (Biorad PHP046) (ligand, human, UniProt P13232 26-177, looked up)
chain: DCDIEGKDGKQYESVLMVSIDQLLDSMKEIGSNCLNNEFNFFKRHICDANKEGMFLFRAARKLRQFLKMNSTGDFDLHLLKVSEGTTILLNCTGQVKGRKPAALGEAQPTKSLEENKSLKEQKKLNDLCFLKRLLQEIKTCWNKILMGTKEH
notes: Bought cytokine
Broadly, the Kd is the constant that tells how readily two partners part at equilibrium. A lower Kd goes with a tighter complex. With B1, binding in experiment [1] was put at a Kd of 0.198 µM. In other words, the sub-micromolar range.

B2: anti-PD1 antibody, chimeric form (antibody, human IgG4 S228P, kappa, V domains shown)
VH: QIQLVQSGPELKKPGETVKISCKASGYTFTHYGMNWVKQAPGKGLKWMGWINTNTGEPTYAEEFKGRFAFSLETSASAAFLQINNLKNEDTATYFCAKEREPGMDSWGQGTSVTVSS
VL: DVLLTQTPLSLPVSLGDQASISCRSSQNIVHANGNTYLEWYLQKPGQSPKLLIYKVSNRFSGVPDRFSGSGSGTDFTLKITRVEAEDLGVYYCFQGSHVPNTFGGGTKLEIKR
notes: also called anti-PD1 alone
For B2, the “IC50 (read off the curve)” value in experiment [2] was around 0.004 µM.
